Assay: soluble fraction after stress (log2 fold change); higher = more stays soluble; pooled small domains, quantitative proteomics
Settings: stress: pH 4
Outline: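 Pooled custom libraries of small protein domains were stressed at pH 4 and then measured by high-throughput quantitative proteomics. The fold change in the amount of each domain that stays soluble after the acid stress serves as a measure of aggregation propensity. Fold changes are given on a log2 scale, and higher values mean more of the domain stayed soluble.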

| Sequence | soluble fraction (log2) |
| --- | --- |
| HMNAEGLIGREAVALTAVDAHGGRVRLGGEEWSARLSKENGGVSRLSVGDPVRVTDIDGAIAVVAP | 0.0456 |
| HMLFKGDTREENVILEFLSKNGTTSSDAIIKQTGLSASEFNQAITMLELKGLALNNGGEKWSL | -0.0366 |
| HMKRREENLRRLALSTAERVKRKGKKEILNPMSPQERRIIHLTLQNNKEVVTHSEGEDPYRRVIISPRN | 0.311 |
| HMNRITEFVVPEGTKKIRADKLLAESFPDHSRSDFHRAFDASLVRLEGQPISKNRKISQGDVLVFEMPEI | -0.468 |
| HMDSDELEAFRLITSVNGVGPKLGIAILSEFTAEKLTVFIASGDAKALTAASGVGIKLAQRIVLELKDKVG | -0.184 |
| HMNVNVSFTQLRHKAEHAIQAKNWSEARNLLTLATLMRPTHRNVARRLKAVEQRNRLFRRLLLILTHRKV | -0.229 |
| HMKSSLAKNLETLMQERQISQTRLSKISGVSQSYIFKILNDQIKKPSLDTLEKLATALDSTVAQLNH | 0.191 |
| HMSPSQFRSKSLLVEINFASRQMDGEILQGDYAGKRLSELTEAEVQELTAWLKQSDRESFVLLQAYLLRSG | -1.17 |
| HMNKPTFNIFNNRLTFPFKGDITIYSLDGKRVFSAYNESSVNLSFLNRGSYISEFNNSRSVLIL | -0.948 |
| HMRAEPNSNYSLAIIYKNRYDIAVKKKDAVKEVEYGKMVYEYLNKYVVLSGNKSAKYKKILNYFSSY | -0.445 |
| HMETLKEVPNLKGQQQEVAKQLLINAGLGVGKINIIEDSTIADGEVVTQSILPNTKVKKDTYVGFTVNKAP | 0.22 |
| HMGPRKAGSEATRQKILDAAEILFAERGFHSVSVRDITTEAGVDVALINYHFGSKQLLFETVFMRR | -0.472 |
| HMVPLGDLSKNERRAMELAATNGNVTTRALADDAQVTKRTASTTLRRLAKRGLLEWIGKGPSDPGQFYRIP | -0.119 |
| HMEELIIQEELANKRLDIAISLLFPELTRAHAQKLIKEGSVLVDGKPRKASYPLTAGKRLSVTLPEPE | -0.0497 |
| HMESPVNTLPEDQRAWYKALPPELSTKTAVEAGAGVGVSERTVKRLLSNQTFFINLQRGNYRKRH | 0.314 |
| HMTIPNGTVVNGTVLEAREAGAYLVRVAGQTLTAQANLPLLVGQHFRAVWDSSGDIPVLRLSDAEQALLGK | -0.121 |
| HMHSEEAALLHRYIDSLEEPQHTVVVMRDIGGYSFEEIASVVQLKEAHIWMILSRARRKLRELYIKTMDHH | -0.101 |
| HMIEGEQVRLLRLLERQEGGMLPLGDKSPASDILLLTGMSKKTFKMAVGALYKAQMITMTPTSIKLVK | 0.386 |
| HMVNYKEILRLSAEGNSQRQIAAGSGNSRNTVIEVLEAARARGITWPLDEPVTNEQLEAILFPNRY | ≥ 0.43 |
| HMPTQGELAILRVLWEQGPSTVRAVWEKLNSQSGTGYTTALKLMQIMAQKGLVSRDESQKTHVYRA | -0.511 |
| HMDEWKRKELWDAIARLPKIQRMVVTMRTTENLPYKEIAKIMNISENSAKVNYHHAVEALKIFF | 0.0454 |
| HMFFFILNKGAKSGGEITHAVLNGSIVSKPAGWDAFHGLVLAKEKLSSEEIQRQMKELGVEMEIVPL | -1.18 |
| HMPIQLLSEKYMDEHWDELDKDEVSLYQNMSIRFLLKHEDDINWKLYSTNPFISIDTIDFFKDKISWVNI | -1.45 |
| HMLPERIQTIVALIGHGRAMDLVREFGGQEIKFPAQEGNDTWAALVEVIGEAATRKLAAVFGGGQAPPVYI | -0.593 |
| HMDDEDLAFLQREFVSYQQAMDYYGLGYKPVVRLSHISGSVYKIGKKVLIRRNIFEEYLRNHV | -0.666 |
| HMNGDWISARQEYYIRGLWDLASRAKDEASLQAMLQRIAGVTQIEWISKEKATKVILALRDIAKK | -0.154 |
| HMTHANAALTPRHRLKVARLVVDEGWPVSEVAARFQVSWPTVKRWADRYRAGQSMQDRSSRP | 0.228 |
| HMYSFPHQLLKLRTEKQLSQAELATRLFVSRQAVSKWENGDAEPSIDKLILLAKVFNVSLDRLILGT | 0.18 |
| HMVYFDDEELDRFAGRAADSYTSDETDEFRDVMLTLLPADVMPWTQSIEMRGILLPEQLRDELLML | -1.26 |
| HMQTKSDMVYHRVREDIVNGVFAPGERLLISAVAKQYGVSEIPVREAFRVLSQEGFLKTRPNSGFVVS | -0.294 |
